According to US7601357B2 (priority 2005, dated 2009):

B1: LIPY: M. tuberculosis long-chain TG hydrolase, HSL family lipase, expressed His-tagged in E. coli (protein, listed as Mycobacterium tuberculosis)
chain: EYVVAIHGGAFILPPSIFHWLNYSVTAYQTGATVQVPIYPLVQEGGTAGTVVPAMAGLSNVSVVGDSAGGNLALAAAQYMVSQGNPVPSSMVLLSPWLDVGTWQISQAWAGNLAVNLPPTYVYSGSLDPLAQQAVVLEHTAVVQGAPFSFVLAPWQIHDWILLTPWGLLSWPQINQQL
modifications: His6 tag
notes: M. tuberculosis long-chain TG hydrolase, HSL family lipase, expressed His-tagged in E. coli
B2: LIPU: M. tuberculosis putative lipase/esterase gene product expressed in E. coli (protein, UniProt O53424 1-297, looked up)
Esterase LipU: MAVRPVLAVGSYLPHAPWPWGVIDQAARVLLPASTTVRAAVSLPNASAQLVRASGVLPADGTRRAVLYLHGGAFLTCGANSHGRLVELLSKFADSPVLVVDYRLIPKHSIGMALDDCHDGYRWLRLLGYEPEQIVLAGDSAGGYLALALAQRLQEVGEEPAALVAISPLLQLAKEHKQAHPNIKTDAMFPARAFDALDALVASAAARNQVDGEPEELYEPLEHITPGLPRTLIHVSGSEVLLHDAQLAAAKLAAAGVPAEVRVWPGQVHDFQVAASMLPEAIRSLRQIGEYIREATG
modifications: expressed in E. coli
B3: LIPV: M. tuberculosis putative lipase/esterase gene product expressed in E. coli (protein, UniProt L0TC47 1-261, looked up)
Lipase LipV: MIIDLHVQRYGPSGPARVLTIHGVTEHGRIWHRLAHHLPEIPIAAPDLLGHGRSPWAAPWTIDANVSALAALLDNQGDGPVVVVGHSFGGAVAMHLAAARPDQVAALVLLDPAVALDGSRVREVVDAMLASPDYLDPAEARAEKATGAWADVDPPVLDAELDEHLVALPNGRYGWRISLPAMVCYWSELARDIVLPPVGTATTLVRAVRASPAYVSDQLLAALDKRLGADFELLDFDCGHMVPQAKPTEVAAVIRSRLGPR

Tests used:
[1] = assay type: biochemical, M. tuberculosis; conditions: pH 8

Molecule | TG hydrolase activity [1] | Rate of [14C]diolein hydrolysis (20 mM diolein emulsion) | Storage stability (60 days at 4° C. and 4 cycles of freezing at −20° C. followed by thawing) | Temperature stability of lipase activity (held at 50° C. or higher for 15 min prior to assay) | Fatty acid release from other substrates (phosphatidylcholine, phosphatidyl ethanolamine or hexadecyl palmitate, data not shown) | Km (read-out: apparent Km, triolein, double-reciprocal plot) | Vmax (triolein, double-reciprocal plot)
B1 | 48.6 nmol/mg/min | 316.8 ± 9.0 nmol/mg/min | retained nearly all of its original activity | dropped off sharply | did not show any fatty acid release | 7.57 mM | 653.3 nmol/mg/min
B2 | 0 nmol/mg/min | – | – | – | – | – | –
B3 | 0 nmol/mg/min | – | – | – | – | – | –
